From patent US20170166631A1 (published 2017) come the findings set out here.

Substitutions are numbered along the chain they refer to. Where two headings read alike, the source gives them in different places.

Holding throughout (experiment): ELISA
(An ELISA detects its analyte on a solid surface through an enzyme-linked reagent.)

Test [1] addresses T1, HD21 (huntingtin exon 1 protein with 21 polyQ repeats after cleavage of the GST tag; aggregation reaction) (human, UniProt P42858 1-88).
T1 chain: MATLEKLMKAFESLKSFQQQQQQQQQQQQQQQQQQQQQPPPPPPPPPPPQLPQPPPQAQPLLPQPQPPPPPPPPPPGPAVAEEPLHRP

The target of test [2] is T2, HD49 (huntingtin exon 1 protein with 49 polyQ repeats after cleavage of the GST tag; aggregation reaction) (human, UniProt P42858 1-88).
T2 chain: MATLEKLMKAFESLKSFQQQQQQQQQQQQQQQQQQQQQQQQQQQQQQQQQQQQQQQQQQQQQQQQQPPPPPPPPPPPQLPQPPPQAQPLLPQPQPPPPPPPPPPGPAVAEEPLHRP

In test [3] the target is T3, GST-HttExon1Q21 (recombinant huntingtin exon 1 protein with 21 polyQ repeats fused to an N-terminal GST tag) (;human, UniProt P08515 1-218 = GST; P42858 1-88).
For test [4], the target named is T1, HD21 (huntingtin exon 1 protein with 21 …).
For test [5], the target named is T2, HD49 (huntingtin exon 1 protein with 49 …).
Test [6] addresses T3, GST-HttExon1Q21 (recombinant huntingtin …). The source holds these as a separate data set.
In test [7] the target is T1, HD21 (huntingtin exon 1 protein with 21 …).
The target in test [8] is T2, HD49 (huntingtin exon 1 protein with 49 …).
The target of test [9] is T3, GST-HttExon1Q21 (recombinant huntingtin …). The source holds these as a separate data set.
Test [10] concerns the target T1, HD21 (huntingtin exon 1 protein with 21 …).
Test [11] deals with T2, HD49 (huntingtin exon 1 protein with 49 …).
The target in test [12] is T3, GST-HttExon1Q21 (recombinant huntingtin …). The source holds these as a separate data set.
Test [13] deals with T1, HD21 (huntingtin exon 1 protein with 21 …).
Test [14] deals with T2, HD49 (huntingtin exon 1 protein with 49 …).
Test [15] deals with T3, GST-HttExon1Q21 (recombinant huntingtin …). The source holds these as a separate data set.
Test [16] deals with T4, BSA-coupled synthetic peptide of the P-rich domain sequence of huntingtin exon 1 (coupled to BSA).
T4 peptide: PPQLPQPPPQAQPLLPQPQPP

Test [17] concerns the target T1, HD21 (huntingtin exon 1 protein with 21 …).
Test [18] concerns the target T2, HD49 (huntingtin exon 1 protein with 49 …).
In test [19] the target is T3, GST-HttExon1Q21 (recombinant huntingtin …). This is another data set of the same source.
Target sequence in this assay (P08515 1-218, tags or fused parts left off): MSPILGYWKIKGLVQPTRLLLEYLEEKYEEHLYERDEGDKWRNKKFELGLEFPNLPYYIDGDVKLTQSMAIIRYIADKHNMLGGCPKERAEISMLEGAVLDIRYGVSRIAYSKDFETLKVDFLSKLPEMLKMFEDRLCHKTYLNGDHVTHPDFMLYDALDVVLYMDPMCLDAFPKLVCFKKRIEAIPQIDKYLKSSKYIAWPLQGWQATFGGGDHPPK

B1: NI-302.11A4 (antibody, V domains shown)
VH: EVQLVESGGGLIQPGGSLRLSCAASGFPVSSSYMSWVRQAPGEGLEWVSVLYRDGDTYYADSVQGRFTISRDNSQNTFYLQMNSLKAEDTAVYYCAGDRRSSHYYYGMDVWGQGTTVTVSS
VL: EIVMTQSPGTLSLSPGERATLSCRASQSVSSSYFAWYQQKPGQAPRLLIYGTSRRATAIPDRFSGSGSGTDFTLTISRLEPEDFAVYYCQQYGSSWTFGPGTKVEIK
Regarding B1, the EC50 (in general, the concentration needed to bring the measured effect to its halfway point) came out at 18.2 nM in test [1]; 19 nM in test [2]; 1.4 nM in test [3]; 18 nM in test [4]; 19 nM in [5]; 1.4 nM in test [6].

B2: NI-302.22H9 (antibody, V domains shown)
VH: EVQLVESGGGLVHPWGSLRVSCAASGFSVSNYAITWVRQAPGKGLEYISVIYRDGRTYYGDSVRGRFTISRDDSKNTIYLQMNSLRFEDTAVYYCARAHGQYYYGVDVWGQGTTVTVSS
VL: DVVMTQSPLSLSVSPGEPASISCRSSQSLLHSNGYNYLDWYRQKPGQSPQLLIYLNSNRASGVPDRFSGSGSGTEFTLTISRVEAEDVGVYYCMQSLQTFTFGGGTKVEIK
Turning to B2, the EC50 in [7] was 11 nM; in [8], 21 nM; in [9] it was 1.6 nM; in test [4] it was 11 nM; in test [5] it was 22 nM; in test [6] it was 1.6 nM.

B3: NI-302.39G12 (antibody, V domains shown)
VH: B2 VH with E6Q, V20L, Q39R, E46Q, I78L
VL: B2 VL with N56S, A60P, G69A, T79Q, E109D
With B3, the EC50 came to 15 nM in [1]; 28 nM in [2]; 3.4 nM in test [3]; 15 nM in [4]; 28 nM in test [5]; 3.4 nM in test [6].

B4: NI-302.46C9 (antibody, V domains shown)
VH: QVQLQESGPGLVKPSQTLSLTCTVSGASVSSGAYYWSWIRQPAGKRLEWIGRVYPTWSTNYNPSLESRVTISLDTSNNQFSLKLTSLTAADTAVYYCAREAPGDYDAAPLAYWGQGTLVTVSS
VL: DIQMTQSPSSLSASVGDRVTITCRASQYISHYLNWYRQKPGKAPQLVIYAASSLQSEVPSRFSGSGSGPEFTLTISSLQPEDFATYYCQQSYTTPRTFGQGTKLEIK
For the molecule B4, the concentration for a half-maximal effect (EC50) in [10] is 0.3 nM; in [11], about 0.05 nM; in [12] it was about 0.07 nM; in test [4], 0.3 nM; in test [5], 0.05 nM; in test [6], 0.07 nM.

B5: NI-302.64E5 (antibody, V domains shown)
VH: EVQLVETGGGLVKPGGSLRLSCAASGFTFDQAWMSWVRQVPGKGLEWVGRIKTKTEGEATDYAAPVRGRFTISRDDSEDTVFLQMNSLKTEDTALYYCTSTGVLAAAVDVYWGQGTLVTVSS
VL: DIQLTQSPDSLAVSLGERATMTCKSSQSLFYSYNNENYLAWYQQRPGQPPKLLIYWASTRESGVPDRFSGSGSGTDFTLTISSLQAEDVAVYYCQQYYSTPQTFGQGTKVDIK
Regarding B5, the EC50 turned out to be 0.7 nM in [13]; 1.6 nM in [14]; 1.4 nM in [15]; 0.1 nM in test [16]; 0.7 nM in test [17]; 1.6 nM in test [18]. The EC50 in test [19] was 1.4 nM.

B6: NI-302.15D3 (antibody, V domains shown)
VH: EVQLVESGGDLVQPGGSLRLSCAASGFTFSSYWMHWVRQAPGKGLVWVSRISNDGSSKTYADSVKGRFTISRDNAKNTLYLQMNSLRAEDTAVYYCAILGGYCSSTSCRPFDNWGQGTLVTVSS
VL: QSALTQPASVSGSPGQSITISCTGTSSDVGVYNYVSWYQQHPGKAPKLMIFDVSNRPSGISNRFSGSKSGNTASLTISGLQAEDEADYYCSSYTSSDTWVFGGGTKLTIL
In the case of B6, the EC50 in test [16] is 1.2 nM; in test [17], 6.4 nM; in [18] it was 15 nM; in test [19], 4.2 nM; in [10] it was 6.4 nM; in test [11], 15 nM. Moreover, the EC50 in test [12] turned out to be 4.2 nM.

B7: NI-302.44D7 (antibody, V domains shown)
VH: EVQLVQSGGGLVQPGGSLRLSCAASGFTFSSYAMSWVRQAPGKGLEWVSGIGYSDTSTYYADSVKGRFTVSRDISKNTLYLQMNSLRAEDTAVYYCAKGTRDYYGMDVWGQGTMVTVSS
VL: QTVVTQEPSFSVSPGGTVTLTCGLSSGSVSTSYYPSWYQQTPGRAPRTLIYSTNTRSSGVPDRFSGSILGNKAALTITGAQADDESDYYCVLFMGSGIGVFGGGTRLTVL
For B7, the EC50 is 11 nM in [7]; 10 nM in test [8]; 5.4 nM in test [9]; 11 nM in test [4]; 10 nM in test [5]; 5.4 nM in test [6].

B8: NI-302.37C12 (antibody, V domains shown)
VH: EVQLVESGGGLVQPGGSLRLSCVASALTVTNSQMTWVRRAPGRGLEWVSVIYTSGSAYYADSVKGRFTISRDNSKNTVFLQMNSLRVEDTAVYYCAKGPSAYYYGLDLWGQGTTVTVSS
VL: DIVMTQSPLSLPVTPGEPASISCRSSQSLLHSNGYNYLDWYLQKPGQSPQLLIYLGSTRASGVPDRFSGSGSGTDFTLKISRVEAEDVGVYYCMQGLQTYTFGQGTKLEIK
As to B8, the EC50 in test [7] came to 2.5 nM; in test [8] it was 4.9 nM; in test [9], 0.3 nM; in test [4] it was 2.5 nM; in test [5] it was 4.9 nM; in [6], 0.33 nM.

B9: NI-302.2A2 (antibody, V domains shown)
VH: EVQLVESGGGLVQPGGSLRLSCAASGFTFSTYWMNWVRQAPGKGLEWVANIKPDGSDKYYVDSVKGRFTISRDNAKNSLYLQMNSLRDEDTAVYYCARGDGSGWNVYWGQGTLVTVSS
VL: DIQMTQSPDSLAVSLGERATINCKSSQSLLYTSKNKDSKNYLGWYQQKPGQPPKLLIYWASTRESGVPDRFSGSGSGTDFTLTISSLQAEDVAVYYCQQYYTTPQFGGGTKVEIK
Turning to B9, the EC50 is 1.4 nM in test [16]; 12.3 nM in test [17]; over 100 nM in test [18]; 10.1 nM in [19]; 12.3 nM in [10]; about 100 nM in test [11]. Besides, the EC50 in test [12] worked out at 10.1 nM.
